Laboratory results published in the supplement of paper PMC7125110.
± gives the standard error. Fewer inactive variants are shown than the library holds.

B1: glmS ribozyme (parent)
chain: AUAAAAGCGCCAGAACUACAGAAAUGUAGUUGACGAGGAGGAGGUUUAUCGAAUUUUCGGCGGAUGCCUCCAAA

Columns and labels:
Conditions in all cases: with glucosamine-6-phosphate
[1] = variants of: B1; experiment: self-cleavage kobs at 40 uM GlcN6P; higher = faster cleavage; RNA array
Procedure, shortened: (§1)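 E. coli RNA polymerase transcribed barcoded ribozyme variants in situ on sequenced MiSeq chips, which were tracked via a hybridised Cy3 probe at 37 °C. Tiles were imaged over ~14 h after glucosamine-6-phosphate (40 μM to 10 mM) in HEPES/KCl/Mg(OAc)2 buffer was flowed in. Normalised per-tile medians were fit to one- or two-exponential decays for kobs, and kcat and KM came from weighted Michaelis–Menten fits.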

[2] = variants of: B1; experiment: self-cleavage kobs at 10000 uM GlcN6P; higher = faster cleavage; RNA array
Procedure, shortened: as §1

[3] = variants of: B1; experiment: self-cleavage kobs at 640 uM GlcN6P; higher = faster cleavage; RNA array
Procedure, shortened: as §1

[4] = variants of: B1; experiment: self-cleavage kobs at 2500 uM GlcN6P; higher = faster cleavage; RNA array
Procedure, shortened: as §1

[5] = variants of: B1; experiment: self-cleavage kobs at 160 uM GlcN6P; higher = faster cleavage; RNA array
Procedure, shortened: as §1

Variant	self-cleavage kobs at 40 uM GlcN6P [1]	self-cleavage kobs at 10000 uM GlcN6P [2]	self-cleavage kobs at 640 uM GlcN6P [3]	self-cleavage kobs at 2500 uM GlcN6P [4]	self-cleavage kobs at 160 uM GlcN6P [5]
G37U G41C C67A	< 1e-05 s⁻¹	–	–	–	–
C8A G13A U47G G60U	< 1e-05 s⁻¹	–	–	–	–
A14U A15G A53G	0.000126 ± 2.3e-05 s⁻¹	0.0102 ± 0.0019 s⁻¹	–	–	–
A12C G13A U65C C68U	< 1e-05 s⁻¹	–	–	–	–
C16A G38A	< 1e-05 s⁻¹	–	–	–	–
G13A G37U A39G G41C A42C G43A	< 1e-05 s⁻¹	< 1e-05 s⁻¹	–	–	–
G7U A52U	< 1e-05 s⁻¹	< 1e-05 s⁻¹	< 1e-05 s⁻¹	< 1e-05 s⁻¹	–
C34G A53G U56G C67U	< 1e-05 s⁻¹	–	–	–	–
G9C G32C	< 1e-05 s⁻¹	< 1e-05 s⁻¹	< 1e-05 s⁻¹	< 1e-05 s⁻¹	< 1e-05 s⁻¹
G44C G60C	< 1e-05 s⁻¹	< 1e-05 s⁻¹	< 1e-05 s⁻¹	–	< 1e-05 s⁻¹
C10A A48U A52C A64G	< 1e-05 s⁻¹	–	–	–	–
G29U G60C C70A	< 1e-05 s⁻¹	–	–	–	–
A12U G41A G44C U55G	< 1e-05 s⁻¹	< 1e-05 s⁻¹	–	–	–
U56G C71U	0.000303 ± 4.6e-05 s⁻¹	0.0163 ± 0.0024 s⁻¹	0.00222 ± 0.00042 s⁻¹	0.00323 ± 0.00056 s⁻¹	0.000762 ± 0.00016 s⁻¹
G13U U31C C50G G63U	< 1e-05 s⁻¹	–	–	–	–
A42C G66C	< 1e-05 s⁻¹	< 1e-05 s⁻¹	< 1e-05 s⁻¹	< 1e-05 s⁻¹	< 1e-05 s⁻¹
C11U A15C G62C	< 1e-05 s⁻¹	< 1e-05 s⁻¹	–	–	–
G35A U45C	< 1e-05 s⁻¹	< 1e-05 s⁻¹	< 1e-05 s⁻¹	< 1e-05 s⁻¹	–
G29A U55C C61G	< 1e-05 s⁻¹	–	–	–	–
G40U A64U	< 1e-05 s⁻¹	–	–	–	< 1e-05 s⁻¹
C34U U69A	0.000116 ± 2.4e-05 s⁻¹	–	0.00034 ± 0.00012 s⁻¹	–	–
G13C G37A C50U G59C	< 1e-05 s⁻¹	–	< 1e-05 s⁻¹	< 1e-05 s⁻¹	–
A14G U54G G66A	0.000476 ± 0.00011 s⁻¹	0.0163 ± 0.0061 s⁻¹	–	–	–
G9U A15C U47C	< 1e-05 s⁻¹	–	–	–	–
C10G U30C A33C U55A	< 1e-05 s⁻¹	< 1e-05 s⁻¹	–	–	–
G9U A33U A52U U56G	< 1e-05 s⁻¹	–	–	–	–
G41U A42G G44A A48G	< 1e-05 s⁻¹	–	< 1e-05 s⁻¹	–	–
G7C G41U	< 1e-05 s⁻¹	< 1e-05 s⁻¹	–	< 1e-05 s⁻¹	< 1e-05 s⁻¹
